One experiment concerns the target T1, 牛血清白蛋白(BSA) (bovine, UniProt P02769 25-607).
T1 construct: Control antigen of the specificity ELISA
In words: ELISA, BSA coated at 1 μg/ml, anti-His detection, OD450.

A further experiment deals with T2, IL-17A重组蛋白 (UniProt Q16552 24-155, limits assumed).
T2 construct: also called 重组蛋白IL-17A; IL-17A抗原
T2 sequence (looked up): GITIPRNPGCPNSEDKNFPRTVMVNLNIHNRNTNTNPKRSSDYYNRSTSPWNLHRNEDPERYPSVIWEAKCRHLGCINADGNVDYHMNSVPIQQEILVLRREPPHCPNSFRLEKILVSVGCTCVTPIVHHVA
In words: BLI (Fortebio). A general note: In BLI a coated tip is dipped into the sample, and binding shifts an interference pattern.

T1 sequence (P02769 25-607 limits assumed): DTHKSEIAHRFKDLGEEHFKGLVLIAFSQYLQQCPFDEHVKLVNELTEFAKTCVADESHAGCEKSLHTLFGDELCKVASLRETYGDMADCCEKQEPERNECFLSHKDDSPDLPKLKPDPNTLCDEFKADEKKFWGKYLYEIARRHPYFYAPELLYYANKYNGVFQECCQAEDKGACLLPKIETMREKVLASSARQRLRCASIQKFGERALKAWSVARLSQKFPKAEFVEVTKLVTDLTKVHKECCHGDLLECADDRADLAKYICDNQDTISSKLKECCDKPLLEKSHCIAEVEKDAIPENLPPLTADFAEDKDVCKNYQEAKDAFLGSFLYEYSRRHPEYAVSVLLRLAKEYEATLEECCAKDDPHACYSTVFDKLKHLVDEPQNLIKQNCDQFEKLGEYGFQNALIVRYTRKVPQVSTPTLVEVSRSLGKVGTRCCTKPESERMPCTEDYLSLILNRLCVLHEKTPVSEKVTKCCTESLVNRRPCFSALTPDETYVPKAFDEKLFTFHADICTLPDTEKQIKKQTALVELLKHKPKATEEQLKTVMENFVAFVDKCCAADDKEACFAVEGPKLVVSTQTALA

B1: 全人源抗IL-17A单链抗体No.34 (scFv)
scFv: MQVQLVQSGAEVKPPGASVKVSCKASGYTFTTHKIQWVRQAPGQRLEWMGWINTDKGDTKYSQKFQGRVTITSDTSASTAFMDLSSLRSEDTAVYYCARDGEGYAPFGMDVWGQGTTVTVSSGGGGSGGGGSGGGGSDIRLTQSPPSLSASVGDRVTITCRASQTIGSHLNWYQQKPGKAPKLLIYAASSLQSGVPSRFSGSGSGTDFTLTISSLQPEDFATYYCQQSHSGLTFGGGTKVDIK
notes: also called anti-IL-17A scFv No.34; Anti-IL-17A scFv No.34
Consider B1, for which, in the experiment with 牛血清白蛋白(BSA), the binding result is reported as “no binding (tested: 0.1μg/ml)”. For the same molecule, the Kd (in general, the free concentration of one partner at which half of the binding sites on the other are occupied at equilibrium, for simple one-to-one binding) in the experiment with IL-17A重组蛋白 amounted to 110 nM.

The values are drawn from patent publication CN115819579A (UNIV ZHEJIANG, dated 2023).
